Assay [1] has as its target T1, caspase-3 (Homo sapiens, UniProt P42574).
T1 sequence (P42574 29-175 limits assumed): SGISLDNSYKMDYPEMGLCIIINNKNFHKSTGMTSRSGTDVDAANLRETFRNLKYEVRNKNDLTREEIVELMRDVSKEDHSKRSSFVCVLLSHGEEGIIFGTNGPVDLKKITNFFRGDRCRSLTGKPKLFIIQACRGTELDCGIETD
T1 sequence (P42574 176-277 limits assumed): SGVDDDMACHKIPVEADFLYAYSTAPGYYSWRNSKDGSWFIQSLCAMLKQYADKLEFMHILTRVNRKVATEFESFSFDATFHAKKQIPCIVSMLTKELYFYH
Kind of assay: Western blot analysis of caspase-3 cleavage of purified FRET probes. It counts as biochemical. The conditions noted are these: for cleavage by caspase-3 (Western blot): purified protein incubated with caspase-3, 37 degree C, 1-2 hrs, anti-GFP antibody. Here is the method:
Purified FRET probes were incubated with caspase-3 in the reaction buffer at 37. degree. C. for 1-2 hrs. The reaction mixtures were separated on a SDS-PAGE and transferred onto a nitrocellulose membrane. The Protein blot was then probed with anti-GFP antibody (CLONTECH™). Acetyl-Asp-Glu-Val-Asp-aldehyde called CHO (AC-DEVD-CHO) is a chemical derivative of SEQ ID NO: 11 and a caspase-3 specific inhibitor.
To determine whether these FRET probes are sensitive to caspase-3 cleavage; the purified proteins were incubated with caspase-3 and then subjected to Western blot analysis. Antibodies were purchased from CLONTECH™.
Background: Immunoblotting shows a protein as a band on a membrane.

Assay [2] deals with T1, caspase-3. In words: Dosage-dependent caspase-3 cleavage assay. The conditions noted are these: 1.28 μg sensor protein, caspase-3 0.3125 ng to 1.28 μg, 1 hour; for sensitivity to caspase-3: normalized YFP/CFP ratio. It counts as biochemical. Here is the method:
Same amount of purified sensor A and sensor B protein was incubated with different amount of caspase-3 ranging from 0.3125 ng to 1.28 μg for 1 hr. The emission spectra of both YFP and CFP were measured for each sample at the end of reaction using a spectrofluorometer. The emission ratio (YFP/CFP) of each sample was normalized to the value of the ratio from a mock control with no caspase-3.
To compare the sensitivity of sensor A and sensor B on caspase-3 activity, a dosage-dependent caspase-3 cleavage assay was performed. In this experiment, 1.28 μg amount of the purified sensor A or sensor B protein was incubated with different amount of caspase-3 ranging from 0.3125 ng to 1.28 μg for 1 hour. The emission spectra of both YFP and CFP were measured for each sample at the end of the reaction using a spectrofluorometer. The emission ratio (YFP/CFP) of each caspase reaction was normalized with that of the mock control having no caspase-3 in the reaction.

Assay [3] deals with T1, caspase-3. Kind of assay: Spectrofluorometer measurement of FRET emission spectra before and after caspase-3 treatment. To be noted: excitation 433 nm; for YFP (526 nm)/CFP (480 nm) emission ratio after caspase treatment: after incubating with caspase-3; for YFP (526 nm)/CFP (480 nm) emission ratio before caspase treatment: before caspase-3. The class given is biochemical. Here is the method: The excitation wavelength used to excite CFP in the probe was 433 nm. −cpp32: no caspase-3 in the reaction. +cpp32: caspase-3 was added into the reaction.
The fluorescent energy transfer from CYP to YFP in the FRET probes was measured using a spectrofluorometer. When CFP was excited in each probe at the excitation wavelength of 433 nm, very little emission light was detected from the FRET probes at the known emission wavelength for CFP (480 nm). Instead, a significant amount of emitted fluorescent light was detected at the emission wavelength of YFP which peaks at 526 nm (FIG. 4). […] It was then determined whether the FRET effect was sensitive to the caspase cleavage. The FRET probes were treated with caspase-3 and analyzed using a spectrofluorometer. […] As a control, no change for the emission spectrum was observed from the CFP-YFP fusion protein which lacks the substrate sequence (FIG. 4A). Based on spectra similar to FIG. 4, it was determined the YFP (526 nm)/CFP (480 nm) emission ratio for all three FRET probes before and after caspase treatment. This YFP/CFP ratio was used to quantify the FRET effect.

The test system of another assay is HeLa cells. Kind of assay: Imaging of FRET probe in living HeLa cells during UV-induced apoptosis. It counts as cell-based. How it is done:
HeLa cells expressing either sensor A or CFP-YFP fusion protein were induced to apoptosis by UV irradiation for 5 min. When the probe was excited at 440 nm, the fluorescent intensity of CFP (at 480±15 nm) and that of YFP (at 535±12.5 nm) from same cell before (A, C) and after (B, D) UV treatment was recorded using a cooled CCD imaging system. The representative ratio images of YFP/CFP are shown here. A significant FRET reduction is seen only in panel B from both cells expressing sensor A, but not in panel D with cells expressing the control fusion protein.
FIG. 7 is a statistic analysis of FRET changes during apoptosis. Images were recorded as described in FIG. 6. The fluorescent intensities of YFP and CFP were then determined from each image. The average values of YFP/CFP from 13 cells expressing sensor A and 9 cells expressing CFP-YFP fusion protein before and after UV-irradiation are plotted here. Nearly 4-fold reduction in the apoptotic cells expressing was found using the FRET probe but not in the control cells expressing the CFP-YFP fusion gene.
To test whether this FRET probe can be used to detect caspase activity in living cells, sensor A was expressed in HeLa cells and measured the FRET effect of the probe in single cells using a cooled CCD imaging system. The fluorescent images of the cell obtained from the emission wavelengths of CFP and YFP were recorded before and after UV treatment. A computer software (Metamorph, Universal Imaging) was used to generate a ratio image of YFP/CFP for each cell under different treatments. […] At 3 hours after the UV treatment, these cells had entered apoptosis. […] The average YFP/CFP emission ratio changes was calculated for 13 apoptotic cells expressing sensor A, and found a nearly 4-fold reduction after UV treatment (FIG. 7).
Recently, sensor A was used to study the dynamics of caspase-3 activation during UV-induced apoptosis in living HeLa cells.

In the case of “acetyl-Asp-Glu-Val-Asp-aldehyde [AC-DEVD-CHO, reference compound]”, the “cleavage of FRET probe (sensor A) by caspase-3 in the presence of inhibitor” value on caspase-3 [1] (caspase-3 plus inhibitor, Western blot) is on record as “no FRET probe (sensor A) was cleaved”.

As to “sensor A: CFP-YFP FRET fusion protein with 16 amino acid linker SGLRSGGDEVDGGSNS (SEQ ID NO: 7) containing the caspase-3 recognition motif (left off: small tags and cut ends; large carriers)”, in the assay with caspase-3 [1], the “cleavage by caspase-3 (Western blot)” value is given as “caspase-3 can cleave almost all”. In the assay with caspase-3 [2], the “relative sensitivity to caspase-3 (sensor A versus sensor B)” value is listed as “slightly more sensitive than sensor B” and the “sensitivity to caspase-3” value is listed as “highly sensitive”. Further, in the assay with caspase-3 [3], the “change of emission spectrum on caspase-3 treatment” value is reported as “completely changed”, the “YFP (526 nm)/CFP (480 nm) emission ratio after caspase treatment” value was determined as 0.59 and the “YFP (526 nm)/CFP (480 nm) emission ratio before caspase treatment” value was determined as 3.02. Moreover, in the assay with HeLa cells (HeLa cells expressing the probe, before and after UV irradiation, 13 cells sensor A, 9 control cells), the “reduction of average YFP/CFP emission ratio after UV treatment” value was around 4 fold. The “intensity of YFP/CFP ratio image after UV treatment” value in the assay with HeLa cells (HeLa cells, 3 hours after UV treatment) is “decease dramatically”. In addition, the “detection of caspase-3 activation during UV-induced apoptosis” value in the assay with HeLa cells (living HeLa cells) is “clearly detected prior to any visible cell morphological changes”.

As to “sensor B: CFP-YFP FRET fusion protein with 22 amino acid linker SGLRSGGSGGDEVDGGSGGSNS (SEQ ID NO: 10) containing DEVD (left off: small tags and cut ends; large carriers)”, the “cleavage by caspase-3 (Western blot)” value with caspase-3 [1] is “caspase-3 can cleave almost all”. For the same substance, the “sensitivity to caspase-3” value with caspase-3 [2] was “highly sensitive”. In addition, in the assay with caspase-3 [3], the “change of emission spectrum on caspase-3 treatment” value was “completely changed”, the “YFP (526 nm)/CFP (480 nm) emission ratio after caspase treatment” value turned out to be 0.59 and the “YFP (526 nm)/CFP (480 nm) emission ratio before caspase treatment” value amounted to 2.76.

These data come from patent publication US7354735B2, “Nucleic acid encoding fluorescent protein constructs and methods for detecting apoptosis” (Hong Kong University of Science and Technology, priority 2001, dated 2008).
